Results published in article PMC3393671, “A Toxoplasma gondii Pseudokinase Inhibits Host IRG Resistance Proteins” (PLoS Biology, 2012).

Biological target: T1, Irga6 (GST tag cleaved off) (mouse, UniProt Q9QZ85 1-411)
T1 construct: Irga6, mouse IRG protein, cleaved from the GST fusion as a near-native protein; Lacks the N-terminal myristoylation; In one NMR experiment [13C]-Met labelled; also called wt Irga6; purified Irga6; source: E. coli BL21 (pGEX-4T-2), purified (Glutathione Sepharose, thrombin cleavage, Superdex 75); not shown: GST, N-terminal, cleaved
T1 sequence: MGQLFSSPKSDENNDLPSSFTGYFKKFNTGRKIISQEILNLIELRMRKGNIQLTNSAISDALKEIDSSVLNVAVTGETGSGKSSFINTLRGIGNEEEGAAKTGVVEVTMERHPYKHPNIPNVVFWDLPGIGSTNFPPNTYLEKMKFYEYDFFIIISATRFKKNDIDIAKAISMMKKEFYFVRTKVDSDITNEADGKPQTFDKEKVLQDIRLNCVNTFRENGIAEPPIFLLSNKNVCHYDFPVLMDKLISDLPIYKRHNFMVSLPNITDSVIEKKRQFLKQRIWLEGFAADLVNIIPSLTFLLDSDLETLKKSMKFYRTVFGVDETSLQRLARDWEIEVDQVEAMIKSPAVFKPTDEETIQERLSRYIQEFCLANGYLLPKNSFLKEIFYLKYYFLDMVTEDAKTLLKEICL
Assay: NMR titration; 13C-1H HSQC of [13C]-Met labelled ROP5BI without or with unlabeled Irga6; 30°C, 800 MHz
Details: both partners purified

B1: ROP5BI pseudokinase domain (domain or fragment, Toxoplasma gondii (type I))
chain: EAGDSFMRDLLKREEELIGYCREEALKEPAAMVEAVTATVWPQNAETTVDSLLSQGERKLKLVEPLRVGDRSVVFLVRDVERLEDFALKVFTMGAENSRSELERLHEATFAAARLLGESPEEARDRRRLLLPSDAVAVQSQPPFAQLSPGQDDYAVANYLLLMPAASVDLELLFSTLDFVYVFRGDEGILALHILTAQLIRLAANLQSKGLVHGHFTPDNLFIMPDGRLMLGDVSALWKVGTRGPASSVPVTYAPREFLNASTATFTHALNAWQLGLSIYRVWCLFLPFGLVTPGIKGSWKRPSLRVPGTDSLAFGSCTPLPDFVKTLIGRFLNFDRRRRLLPLEAMETPEFLQLQNEISSSLSTGQ
notes: pseudokinase domain of ROP5 isoform B of a type I T. gondii strain (ROP5BI); In one NMR experiment [13C]-labelled on the Cε of methionines; also called purified pseudokinase domain protein ROP5BI; source: purified
B1: binds.
